The assay has as its target SARS-CoV (2002) S1S2-His trimer (SARS-CoV (2002)). Nature of the assay: SPR.

Take HDFWWEYDKKNDTWTRRRR (designed binder) [CVRBDL-3_3]: the Kd is approximately 41 mM.

Source of the values: publication PMC8962251 (2022).
